Experimental data taken from publication PMC3462613.
Like-named read-outs stand apart in the source and are kept apart here.

How the values were obtained:
Experiment in all cases: fluorescence polarisation
[1] = target: FITC-labelled SMN^26–51, wild type (human) (UniProt Q16637)
[2] = target: FITC-labelled SMN^26–51 Y43A (human) (UniProt Q16637)
[3] = target: FITC-labelled SMN^26–51 L39A (human) (UniProt Q16637)
[4] = target: FITC-labelled SMN^26–51 A46N (human) (UniProt Q16637)
[5] = target: FITC-labelled SMN^26–51 K41A (human) (UniProt Q16637)
[6] = target: FITC-labelled SMN^26–51 D36A (human) (UniProt Q16637)
[7] = target: FITC-labelled SMN^26–51 D44A (human) (UniProt Q16637)
[8] = target: FITC-labelled SMN^26–51 D44V (human) (UniProt Q16637)
[9] = target: FITC-labelled SMN^26–51 D35A (human) (UniProt Q16637)
[10] = target: FITC-labelled SMN^26–51 W34A (human) (UniProt Q16637)
[11] = target: SMN^26–51 peptide containing phosphoserine at positions 28 and 31 (human) (UniProt Q16637)
[12] = target: FITC-labelled SMN^26–51, wild type (human) (UniProt Q16637); remark: listed apart in the source
[13] = target: FITC-labelled SMN^26–51, wild type (human) (UniProt Q16637); remark: listed apart in the source
[14] = target: FITC-labelled SMN^26–51 D44V (human) (UniProt Q16637); remark: listed apart in the source
[15] = target: FITC-labelled SMN^26–51, wild type (human) (UniProt Q16637); remark: listed apart in the source
[16] = target: FITC-labelled SMN^26–51 D44V (human) (UniProt Q16637); remark: listed apart in the source
[17] = target: FITC-labelled SMN^26–51, wild type (human) (UniProt Q16637); remark: listed apart in the source
[18] = target: FITC-labelled SMN^26–51, wild type (human) (UniProt Q16637); remark: listed apart in the source

Substance	Kd [1] [nM]	Kd [2] [nM]	Kd [3] [nM]	Kd [4] [nM]	Kd [5] [nM]	Kd [6] [nM]	Kd [7] [nM]	Kd [8] [nM]	Kd [9] [nM]	Kd [10] [nM]	Kd [11] [nM]	Kd [12] [nM]	Kd [13] [nM]	Kd [14] [nM]	Kd [15] [nM]	Kd [16] [nM]	Kd [17] [nM]	Kd [18] [nM]
Gemin2 (12–280) (natural protein)	7																	
Gemin2^95–280 (domain or fragment)	3.3	510	74	42	4.8	8.3	5.3	8.4	6.8	16	4.2	5.2	2.3	1.5	2.2	1800	180	2.4
